The values that follow are results of earlier work, collected in article PMC4729772 (Theranostics, 2016).

Consider “Albiglutide: glucagon-like peptide-1 dimer fused to human albumin”, for which the half-life result is recorded as “four to seven”.
